In patent US12534533B2, “Anti-chemokine like receptor 1 humanized antibodies and their therapeutic applications” (OSE IMMUNOTHERAPEUTICS, priority 2019, dated 2026):

What was measured:
Type in all cases: in vivo, mice
[1] = system: colitis induced by DSS; assay: acute inflammatory colitis model induced by DSS
Procedure: FIG. 2. Effect of an anti-CMKLR1 antibody on a mice acute inflammatory colitis model induced by DSS. Mice were injected after 6 days of DSS induction with isotype control hIgG1 (10 μg per mouse) (x), RvE1 (1 μg per mouse) daily (●), or 2G1 antibody (10 μg per mouse) three times (□) for 5 days. Wild type mice, not treated, are represented by an ▾. A. Animal weight loss. B. Animal stool score C. Colon length. D. Resolution index.
Colitis was induced in 8-10 weeks-old-C57Bl/6 male mice by adding 2% (wt/vol) of DSS to the sterile drinking ad libitum water for 6 days. Treatments were injected intra-peritoneally: Isotype control hIgG1 (10 μg per mouse), RvE1 (1 μg per mouse) daily, or 2G1 antibody (10 μg per mouse) three times for 5 days. Colitis follow-up consisting of body weight and stool score (0: normal stool; 4: blood in stool) parameters were performed daily. When mice were euthanized, colon length representing the pathology severity was measured. Resolution index was determined in the different conditions as described in Bannenberg et al., 2005.

[2] = system: Hepa 1.6 cells; assay: Hepatocarcinoma model (HCC), orthotopic murine hepatoma; conditions: anti-CMKLR1 0.8 mg/kg three times per week, anti-PD1 8 mg/kg, 2 weeks; followed sixty days; FIG. 20
Procedure: FIG. 20. Effect of an anti-CMKLR1 antibody on a Hepatocarcinoma mice model (HCC model). Anti-tumor effect of anti-CMKLR1 antibody (2G1, 0.8 mg/kg) i.p. administration three times a week for 2 weeks in combination (▴) or not (●) with two injections on day 4 and 8 of anti-PD1 mAb (RMP1-14 clone, 8 mg/kg) or with injections (twice a week) of anti-PD-1 antibody alone (Δ). Mice have been treated during 2 weeks in an orthotropic model of murine hepatoma (2.5.10^6 of Hepa 1.6 cells injected through the portal vein on day 0). Isotype control antibody was used at 0.8 mg/kg three times a week for 2 weeks. Mice response were considered partial (PR) when mice survive few days to 1 month after stop of treatment or complete (CR) when mice survive over 1 month or cured when they survive three times longer than the time necessary to all control mice dye.
Method: Mice were anesthetized with a cocktail of xylazine/ketamine. After a laparotomy, tumoral Hepa 1.6 cells were injected in PBS through the portal vein (2.5·10^6 cells/100 μL) in PBS. The treatment was started 4 days after tumor injection. The anti-CMKLR1 antibody (2G1clone) and the hIgG1 istotype control were injected at 0.8 mg/kg three times per week during 2 weeks. The anti-PD1 monoclonal antibody was injected twice a week during 2 weeks intraperitoneally in PBS (8 mg/kg). […]

[3] = system: psoriasis induced by Aldara cream
Procedure: FIG. 6. Effect of anti-CMKLR1 agonist on an autoimmune disease such as mice psoriasis model. Aldara treated mice for 4 to 6 consecutive days were injected intra-peritoneally with: 2G1 (●) or isotype control antibody (x). A. thicknesses and B weight.
Aldara® cream which is known to induce psoriasis in mice was used on male C57Bl/6 mice (8-10-week old). Mice received a daily topical dose of Aldara. Treatments (anti-CMKLR1 agonist or control compound) were injected intra-peritoneally: […]

B1: 2G1: parental chimeric anti-CMKLR1 antibody: heavy chain variable domain SEQ ID No. 37, light chain variable domain SEQ ID No. 49 (antibody, V domains shown)
VH: EVQLVASGGGLVQPGGSLKLSCAASGFTFSSYGMSWVRQTPDRRLELVATINRYGGSTYYPDSVKGRFTISRDNAKNTLYLQMSSLKSEDTAMYYCPRLIYYGNEGDSWGQGTTLTVSS
VL: QIVLTQSPAIMSASPGEKVTMTCSASSSVSFMHWYQQKSGTSPKRWIYDTTKLTSGVPARFSGSGSGTFYSLTISSMEAEDAATYYCQQWNSKPPLTFGPGTKLELKR
- stool score ([1]; 0: normal stool, 4: blood in stool, FIG. 2B): significantly better
- Animal weight loss ([1]; 10 μg per mouse i.p. three times for 5 days, vs control antibody or RvE1, FIG. 2A): lost significantly less weight
- survival rate (treated animals with prolonged survival) [2]: 15%
- thickness of the skin ([3]; after Aldara administration, e.g. day 15, FIG. 6A): reduces the thickness of the skin
- weight of the animals ([3]; mouse, in vivo): not impacted
